# From patent US20170369542A1 (Pieris, published 2017)
# Where no end group is shown, it is not given here.
# T1: lipocalin mutein of SEQ ID NO: 14, linked to PEG40 (branched 40k PEG-maleimide on the free Cys at position 87)
# T1 construct: hNGAL mutein with Ser 87 back-mutated to Cys and PEGylated there
# T1 chain: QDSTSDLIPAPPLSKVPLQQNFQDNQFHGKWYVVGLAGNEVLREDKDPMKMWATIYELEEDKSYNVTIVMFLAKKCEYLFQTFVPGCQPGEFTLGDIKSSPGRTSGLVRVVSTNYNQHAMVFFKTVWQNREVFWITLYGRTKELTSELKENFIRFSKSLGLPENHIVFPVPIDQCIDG
# T2: cynomolgus Hepcidin-25 (cynomolgus, UniProt A7XEI3 60-84, not fully specified)
# T2 construct: mature
# T2 peptide: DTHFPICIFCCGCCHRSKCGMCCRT
# T3: C-terminal biotinylated human Hepcidin-25 (human, not fully specified; biotinylated via a Lysine residue coupled to the C-terminus via a Mini-PEG linker)
# T3 construct: Bought from Bachem AG; Captured on plates via Neutravidin; also called C-terminal biotinylated hepcidin; C-terminal biotinylated hHepcidin
# T3 peptide: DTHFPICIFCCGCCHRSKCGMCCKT
# B1: synthetic non-modified human Hepcidin-25 (peptide)
# peptide: DTHFPICIFCCGCCHRSKCGMCCKT
# modifications: not fully specified (bridges); ends and bridges not checked
# notes: also called hHepcidin-25; non-biotinylated human hepcidin
# B2: lipocalin mutein of SEQ ID NO: 13, linked to PEG40 (designed binder)
# chain: QDSTSDLIPAPPLSKVPLQQNFQDNQFHGKWYVVGLAGNEVLREDKDPMKMWATIYELKEDKSYNVTIVMPLAEKCEYLFQTFVPGCQPGEFTLGGIKSGPGRTSGLVRVVSTNYNQHAMVFFKVVWQNREVFWVTLYGRTKELTSELKENFIRFSKSLGLPENHIVFPVPIDQCIDG
# modifications: branched 40k PEG-maleimide on the free Cys at position 87
# notes: hNGAL mutein with Ser 87 back-mutated to Cys and PEGylated there
# B3: pegylated mutein of SEQ ID NO: 8 (designed binder)
# chain: QDSTSDLIPAPPLSKVPLQQNFQDNQFHGKWYVVGLAGNEVLREDKDPMKMWATIYELKEDKSYNVTIVMPLAEKCEYLFQTFVPGCQPGEFTLGGIKSGPGRTSGLVRVVSTNYNQHAMVFFKVVWQNREVFWVTLYGRTKELTSELKENFIRFSKSLGLPENHIVFPVPIDQCIDG
# modifications: branched 40k PEG-maleimide on Cys 87
# B4: pegylated mutein of SEQ ID NO: 1 (designed binder)
# chain: QDSTSDLIPAPPLSKVPLQQNFQDNQFHGKWYVVGLAGNEVLREDKDPMKMWATIYELEEDKSYNVTIVMFLAKKCEYLFQTFVPGCQPGEFTLGDIKSSPGRTSGLVRVVSTNYNQHAMVFFKTVWQNREVFWITLYGRTKELTSELKENFIRFSKSLGLPENHIVFPVPIDQCIDG
# modifications: branched 40k PEG-maleimide on Cys 87
# Experiments:
# [1] = biological target: murine ferroportin (FPN) carboxy-terminally fused with green fluorescent protein (GFP) (murine), Q9JHI9; experiment: cell-based or functional assay
# Chain of murine ferroportin (FPN) carboxy-terminally fused with green fluorescent protein (GFP) (murine), Q9JHI9 (Q9JHI9 whole entry, the tested form may be a part): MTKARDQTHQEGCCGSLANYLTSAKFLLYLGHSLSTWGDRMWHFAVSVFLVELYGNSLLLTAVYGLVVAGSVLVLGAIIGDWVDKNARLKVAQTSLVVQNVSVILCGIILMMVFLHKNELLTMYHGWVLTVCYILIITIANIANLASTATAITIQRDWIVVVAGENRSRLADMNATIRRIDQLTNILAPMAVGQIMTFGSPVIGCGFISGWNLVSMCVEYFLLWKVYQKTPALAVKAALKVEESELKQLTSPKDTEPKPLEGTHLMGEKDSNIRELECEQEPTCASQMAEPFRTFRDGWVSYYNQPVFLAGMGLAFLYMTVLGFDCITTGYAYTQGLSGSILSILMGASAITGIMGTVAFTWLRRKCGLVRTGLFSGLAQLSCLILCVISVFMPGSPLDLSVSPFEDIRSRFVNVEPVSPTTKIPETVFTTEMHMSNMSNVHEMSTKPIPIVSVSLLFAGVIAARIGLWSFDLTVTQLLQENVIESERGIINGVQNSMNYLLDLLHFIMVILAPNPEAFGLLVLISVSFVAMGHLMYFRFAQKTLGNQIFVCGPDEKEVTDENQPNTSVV
# [2] = biological target: B2; experiment: competition ELISA, free human hepcidin against captured biotinylated hepcidin
# [3] = biological target: T1, lipocalin mutein of SEQ ID NO: 14, …; experiment: as above
# [4] = biological target: B1; experiment: cell-based or functional assay
# cynomolgus Hepcidin-25 = biological target: T2, cynomolgus Hepcidin-25; experiment: SPR, Biacore T100, mutein amine-coupled to CM5 chip, hepcidin as analyte, 25 C
# Description: (§1) Lipocalin muteins were immobilized to a CM5 sensor chip using standard amine chemistry: The surface of the chip was activated using EDC and NHS. Subsequently, 20 μg/mL lipocalin mutein solutions in 10 mM sodium acetate pH 4.5 (60 μg/mL in 10 mM sodium acetate pH 4.0 for pegylated lipocalin mutein) were applied at a flow rate of 5 μL/min until a surface density of 500-700 resonance units (RU) for non-modified lipocalin muteins and of approximately 1600 RU for pegylated lipocalin with the sequence of SEQ ID NO: 13 was achieved. Residual activated groups were saturated with ethanolamine. The reference channels were treated with EDC/NHS following ethanolamine (blank immobilization). All reagents and materials were purchased from GE Healthcare.
# (§2) Serial dilutions of human and cynomolgus Hepcidin-25 in running buffer (HBS-EP+, GE Healthcare, BR-1006-68) were applied to the prepared surface. The following parameters were used for the binding assay: contact time 60 s, dissociation time 180-360 s, flow rate 30 μL/min. All measurements were performed on a Biacore T100 instrument (GE Healthcare) at 25° C.
# (§3) Data were evaluated with Biacore T100 Evaluation software (V 2.0.1). Double referencing was used. The 1:1 Binding model (Langmuir) was used to fit the raw data.
# [5] = biological target: T3, C-terminal biotinylated human …; experiment: direct ELISA, biotinylated hepcidin captured via Neutravidin, mutein titrated
# Description: (§4) A “direct” ELISA was performed to verify the binding affinity and specificity of the selected Lcn2 muteins. Therefore, a constant concentration of 1 μg/ml C-terminal biotinylated hepcidin (Bachem AG, CH) was captured on the surface of a polystyrol plate (Greiner, GE) via Neutravidin (Thermo Scientific, 5 μg/ml). Two step dilution series of purified Lcn2 muteins were incubated with the captured hepcidin for 1 h at room temperature and detected either via the Strep-tag II using a rabbit anti-strep-tag II polyconal antibody (GenScript, USA) or by using a scaffold-specific polyclonal rabbit antibody. In both cases an anti rabbit IgG-HRP conjugate (Abcam, UK) was employed as secondary detection antibody.
# (§5) The absorption ΔA at […] was measured in an ELISA reader (Tecan, GE) and the data were fitted with Graphpad Prism software (Statcom, USA).
# [6] = biological target: B1; experiment: SPR (Biacore T100), mutein immobilized on CM5 chip, hepcidin-25 in solution, 1:1 model
# Description: as §1, §2, §3
# [7] = biological target: B1; experiment: SPR, Biacore T100, pegylated mutein amine-coupled to CM5 chip, hepcidin as analyte, 1:1 model, 25 C
# Description: as §1, §2, §3
# [8] = biological target: B1; experiment: competition ELISA: non-biotinylated human hepcidin-25 titrated against a constant concentration of mutein; free mutein detected on plate-captured biotinylated human hepcidin
# Description: The binding affinity of the Lcn2 muteins to non-modified hepcidin-25 in solution was evaluated in a competition ELISA approach. Therefore, a constant concentration of 1 μg/ml C-terminal biotinylated human hepcidin (Bachem AG, CH) was captured on the surface of a polystyrol plate (Greiner, GE) via Neutravidin (Thermo Scientific, 5 μg/ml, GE). In parallel a two step dilution series of non-biotinylated human hepcidin starting from 1 μM was incubated with a constant concentration of hepcidin-specific mutein for 1 h at room temperature in a non-protein binding 96 well polypropylene plate (Nunc, GE). The constant concentration of lipocalin muteins corresponds to the EC₅₀ of the respective muteins as determined in a direct ELISA as described above in this example. In the following the mixture of non-modified human hepcidin and lipocalin mutein was transferred onto the hepcidin-captured Neutravidin plate. The C-terminal biotinylated hepcidin was allowed to compete with the non-modified hepcidin for Anticalin binding for 20 min. at room temperature. During these 20 min, free lipcocalin mutein was bound to the captured hepcidin and detected via a rabbit anti-strep-tag II polyconal antibody (GenScript, USA). A goat anti-rabbit IgG-HRP conjugate (Abcam, UK) was employed as secondary detection antibody. Parallel to the competition assay, anticalin binding was determined on the same plate in a “direct” ELISA, in order to obtain a standard curve linking the RFU values to anticalin concentration. This curve was then used to standardize competition data to the level of anticalins bounds to the plate and fitted with Graphpad software. IC₅₀ values correspond to the half-maximum amount of lipocalin mutein bound to the plate.
# [9] = biological target: T3, C-terminal biotinylated human …; experiment: direct ELISA, biotinylated hepcidin captured via Neutravidin
# Description: as §4, §5
binder,measurement,setting,value
B1,EC80 of hepcidin-mediated degradation of the Fpn-GFP fusion protein (GFP fluorescence by flow cytometry),[1],40 nM
same,factor by which pegylation reduced the binding affinity (against the non-pegylated mutein),[2],2 fold
same,factor by which pegylation reduced the binding affinity (against the non-pegylated mutein),[3],4 fold
B2,"IC50 of neutralization of hepcidin-induced (40 nM) internalization and degradation of FPN-GFP in T-REx-293 cells, GFP fluorescence by flow cytometry",[4],34 nM
same,fold higher affinity compared to the human target,cynomolgus Hepcidin-25,~2 fold
same,Kd,[5],3.49 nM
same,Kd,[6],0.041 nM
same,koff,[6],0.000123 s⁻¹
same,kon,[6],2.98e+06 M⁻¹ s⁻¹
same,Kd,[7],0.04 nM
same,IC50,[8],0.24 nM
B3,factor by which pegylation reduced the binding affinity (against the non-pegylated mutein),[9],5 fold
B4,factor by which pegylation reduced the binding affinity (against the non-pegylated mutein),[9],8 fold
